PMC7094245

Target: T1, IBV N protein amino-terminal region (region 1, NI) (Infectious bronchitis virus (strain …, UniProt P69598 1-133))
T1 sequence: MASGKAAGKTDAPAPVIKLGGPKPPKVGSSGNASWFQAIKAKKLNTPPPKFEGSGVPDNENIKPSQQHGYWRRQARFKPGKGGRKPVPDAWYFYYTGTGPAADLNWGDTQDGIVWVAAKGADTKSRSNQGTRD
Test: SPR

B1: IBV leader RNA (contains TRS) (ssRNA)
RNA: ACUUAAGAUAGAUAUUAAUAUAUAUCUAUUACACUAGCCUUGCGCUAGAUUUUUAACUGAACAAUACAGACCUAAAAAGUCUGUUUGAUG
Q: Which Kd does the source give for B1 here?
A: 1430 nM
